# Where two headings read alike, the source gives them in different places.
# Experiments:
# [1] = 1st order degradation kinetics of ferulic acid / tetrahydrocurcumin in glucagon formulations; assay type: physicochemical; details: for half-life at 1 mM: buffer, read-out: degradation t1/2 (converted)
# [2] = cited from earlier work
# cultured mammalian cells = details: fibrillated glucagon; cited from earlier work
# [3] = Reversed phase LCMS of glucagon modifications after aging; assay type: physicochemical
# Procedure: FIG. 3 is a set of four chromatograms from reversed phase LCMS showing the modifications present in glucagon incubated with ferulic acid under the indicated conditions and the recovery by adding varying amounts of L-methionine. The peak indicated as ‘A’ is identified as Met27 oxidation of glucagon; the peak indicated as ‘B’ is a minor breakdown product; the peaks indicated as ‘C’ are identified as glycine adducts.
# FIG. 4 is a set of four spectra from reversed phase LCMS showing the modifications present in glucagon incubated under the indicated conditions. The peak indicated as ‘A’ is identified as Met27 oxidation of glucagon; the peak indicated as ‘B’ is a minor breakdown product; the peaks indicated as ‘C’ are identified as glycine adducts.
# This oxidation occurs on amino acid residue 27, which is a methionine residue (Met27). In order to minimize oxidation, L-methionine was added to the formulation as an antioxidant at 0.1 and 1 mg/ml. […] This is presumably due to activation of a reactive site on the glucagon backbone that results in an addition reaction with glycine from the bulk solvent. In order to maximize the antioxidant properties while also minimizing the glycine adduct formation, a concentration of 0.1 mg/ml L-methionine was tested. Results are shown in the third panel from the top of FIG. 3. This particular formulation had some minor chain cleavage (peak B) that is variable from batch to batch. As a result, the formulation referred to herein as FAFG includes 0.1 mg/ml L-methionine.
# This peak is inhibited at 0.1 mg/ml L-methionine added and nearly absent at 1 mg/ml L-methionine to minimize the oxidation even though glycine adducts are still in high amounts. As a result, the formulation referred to herein as THCFG includes 1 mg/ml L-methionine.
# Ferulic acid and tetrahydrocurcumin modify glucagon less than curcumin.
# [4] = 37° C., alkaline (around pH 10) compared to acidic (about pH 3); cited from earlier work
# [5] = Curcumin half-life in glycine buffer at pH 9.0; assay type: physicochemical
# Excerpt: Curcumin reduces Aβ fibril formation in vitro and when administered systemically to transgenic rodents predisposed to Alzheimer's disease (Hamaguchi T et al, Am J Pathol 175, 2557-2565 (2009) incorporated by reference herein). Curcumin has also been reported to inhibit the polymerization of α-synuclein, the compound responsible for Lewy body formation in diseases such as Parkinson's disease (Ono K and Yamada M, Curr Pharm Des 14, 3247-3266 (2008) and Ono K et al Curr Pharm Des 14, 3247-3266 (2008); both of which are incorporated by reference herein). This finding was confirmed in Pandey N et al, Acta Neuropathol 115, 479-489 (2008); which is incorporated by reference herein. However, curcumin stored in a glycine buffer at pH 9.0 degrades quickly with a half-life of about 7 hours.
molecule,measurement,setting,value
COc1cc(/C=C/C(=O)O)ccc1O [ferulic acid],1st order degradation k,"[1]; 1 mM, pH 9",-0.000701 s⁻¹
COc1cc(CCC(=O)CC(=O)CCc2ccc(O)c(OC)c2)ccc1O [tetrahydrocurcumin],1st order degradation k,[1]; 1 mM compound in 80 mM glycine pH 9.0,0.00886 s⁻¹
same,1st order degradation k,[1]; 1 mM compound in 80 mM glycine pH 9.0 + 1 mg/ml glucagon,0.000743 s⁻¹
same,1st order degradation k,[1]; 1 mM compound in 80 mM glycine pH 9.0 + 1 mg/ml glucagon + 1 mg/ml HSA,-0.0025 s⁻¹
same,half-life at 1 mM,"[1]; pH 9, 1 mM compound in 80 mM glycine pH 9.0 + 1 mg/ml glucagon",933 h
same,half-life at 1 mM,"[1]; pH 9, 1 mM compound in 80 mM glycine pH 9.0",~78 h
glucagon,cytotoxicity,[2]; aged at pH 10 in glycine,no cytotoxicity
same,cytotoxicity,"[2]; aged for 5 days at pH 8.5, concentration 2.5 mg/ml",some cytotoxicity
same,cytotoxicity,cultured mammalian cells,cytotoxic
same,"Met27 oxidation of glucagon (peak A, LCMS)",[3]; aged 7 days at 37° C. with 1 mM ferulic acid,minor oxidation occurs
same,"Met27 oxidation of glucagon (peak A, LCMS)",[3]; aged with 1 mM ferulic acid + 1 mg/ml L-methionine,minimization of oxidation
same,retention of unmodified glucagon,[3]; curcumin formulation + 1 mg/ml L-methionine,higher retention of unmodified glucagon
same,oxidation of glucagon,[3]; incubated with curcumin for 7 days at 37° C.,complete oxidation
same,"Met27 oxidation of glucagon (peak A, LCMS)",[3]; incubated with tetrahydrocurcumin,much higher amount of Met27 oxidation
same,"Met27 oxidation of glucagon (peak A, LCMS)",[3]; tetrahydrocurcumin + 0.1 mg/ml L-methionine,inhibited
same,"Met27 oxidation of glucagon (peak A, LCMS)",[3]; tetrahydrocurcumin + 1 mg/ml L-methionine,nearly absent
same,amyloid fibril formation,[4],much less amyloid fibril formation
COc1cc(/C=C/C(=O)CC(=O)/C=C/c2ccc(O)c(OC)c2)ccc1O [curcumin],half-life,[5]; glucagon buffer with further addition of human serum albumin,33.5 h
same,half-life,[5]; in a glucagon buffer,12.5 h
same,half-life,[5]; stored in glycine buffer at pH 9.0,~7 h

# Reference: US9334316B2, “Formulations comprising glucagon” (Oregon Health & Science University, priority 2014, dated 2016)
